1 substance from article PMC11955550 can be followed below.

Assay [1] has as its target α-synuclein (αSyn) amyloid fibrils (UniProt P37840). As to the kind of experiment: co-sedimentation; αSyn fibrils 20 µM (monomer) with DNAJB1 8 µM in low-salt HD buffer (50 mM HEPES, 2 mM DTT, pH 7.50), 30 min at 30 °C; 17,000 g 30 min; pellet and supernatant on SDS-PAGE, densitometry.
For assay [2] the target is unchanged. As to the kind of experiment: co-sedimentation; αSyn fibrils 20 µM (monomer) with DNAJB1 8 µM in HKMD buffer (50 mM HEPES, 50 mM KCl, 5 mM MgCl2, 2 mM DTT, pH 7.50), 30 min at 30 °C; 17,000 g 30 min; pellet and supernatant on SDS-PAGE, densitometry.

Regarding “wild-type DNAJB1 (from UniProt P25685 1-340) (natural protein)”, the percent bound in assay [1] worked out at 80%; in assay [2] it was 40%.
